From publication PMC9793311, “Negative cooperativity underlies dynamic assembly of the Par complex regulators Cdc42 and Par-3” (The Journal of Biological Chemistry, 2022)

T1: Par complex (Drosophila melanogaster, UniProt O97111 1-351; A1Z9X0 1-606)
T1 construct: atypical PKC (aPKC), Drosophila melanogaster, residues 1-606, from pCMV aPKC; also called Par-6/aPKC; intact Par complex
T1 sequence (looked up) 1: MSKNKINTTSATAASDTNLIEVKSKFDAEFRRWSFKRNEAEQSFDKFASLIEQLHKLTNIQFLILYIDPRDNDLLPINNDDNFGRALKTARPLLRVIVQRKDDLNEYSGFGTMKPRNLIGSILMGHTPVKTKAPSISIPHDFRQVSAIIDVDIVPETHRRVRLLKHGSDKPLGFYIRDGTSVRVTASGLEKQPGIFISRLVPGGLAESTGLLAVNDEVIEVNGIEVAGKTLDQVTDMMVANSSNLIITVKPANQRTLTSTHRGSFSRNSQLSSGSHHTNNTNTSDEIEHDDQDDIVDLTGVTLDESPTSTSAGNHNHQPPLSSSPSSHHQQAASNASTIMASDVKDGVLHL
T1 sequence (looked up) 2: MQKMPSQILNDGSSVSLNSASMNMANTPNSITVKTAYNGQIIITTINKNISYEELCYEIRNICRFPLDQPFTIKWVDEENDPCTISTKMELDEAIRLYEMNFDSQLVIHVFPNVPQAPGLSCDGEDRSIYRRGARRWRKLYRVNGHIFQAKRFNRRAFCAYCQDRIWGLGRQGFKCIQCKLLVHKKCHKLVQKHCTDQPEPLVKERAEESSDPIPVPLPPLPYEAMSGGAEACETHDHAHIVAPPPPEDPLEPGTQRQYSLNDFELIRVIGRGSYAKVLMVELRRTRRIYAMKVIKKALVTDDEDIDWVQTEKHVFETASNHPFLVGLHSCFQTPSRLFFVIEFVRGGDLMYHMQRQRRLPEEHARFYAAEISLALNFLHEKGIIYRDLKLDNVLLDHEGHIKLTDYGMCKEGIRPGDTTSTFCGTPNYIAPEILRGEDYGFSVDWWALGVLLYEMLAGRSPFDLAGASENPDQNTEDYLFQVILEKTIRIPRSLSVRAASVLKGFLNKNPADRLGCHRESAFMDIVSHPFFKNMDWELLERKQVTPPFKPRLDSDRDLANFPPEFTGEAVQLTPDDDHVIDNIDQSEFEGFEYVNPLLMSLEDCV

B1: GST-Cdc42^Q61L (natural protein)
chain: not shown
notes: Cdc42, Drosophila melanogaster, residues 1-191 with Q61L, from pGEX; Nucleotide state is not described; Q61L is called constitutively active; also called GST-fused Cdc42Q61L; solid phase Cdc42^Q61L; source: E. coli BL21-DE3, lysate adsorbed to glutathione resin and washed; not shown: GST, N-terminal, kept

Columns and labels:
Conditions in all cases: both partners purified
Par complex [1] = molecular target: T1, Par complex; assay: pull-down; GST-fused protein on glutathione resin (from bacterial lysate, washed 4x); soluble purified proteins added, 60 min at room temperature; 20 mM Hepes pH 7.5, 100 mM NaCl, 5 mM MgCl2, 0.5% Tween-20, 1 mM DTT, 200 uM ATP; Coomassie-stained gel
Par complex [2] = molecular target: T1, Par complex; assay: supernatant depletion; MBP-Par-3 PDZ1-APM on amylose resin (ligand), soluble Par complex (receptor), 10 min at room temperature; 20 mM Hepes pH 7.5, 100 mM NaCl, 5 mM MgCl2, 0.5% Tween-20, 1 mM DTT, 200 uM ATP; KD from the fraction depleted at one dilution, in sextuplicate
Par complex [3] = molecular target: T1, Par complex; assay: supernatant depletion; GST-Cdc42^Q61L on GSH resin (ligand), soluble Par complex (receptor), 60 min at room temperature; 20 mM Hepes pH 7.5, 100 mM NaCl, 5 mM MgCl2, 0.5% Tween-20, 1 mM DTT, 200 uM ATP; KD from the fraction depleted at one dilution, in sextuplicate
GST-Cdc42^Q61L = molecular target: B1; assay: supernatant depletion; Cdc42 with Par-6 CRIB-PDZ (Figure S1); the text does not say which of the two was on the resin; buffer as for the other supernatant depletion assays
Chain of GST-Cdc42^Q61L (P40793 whole entry Q61L): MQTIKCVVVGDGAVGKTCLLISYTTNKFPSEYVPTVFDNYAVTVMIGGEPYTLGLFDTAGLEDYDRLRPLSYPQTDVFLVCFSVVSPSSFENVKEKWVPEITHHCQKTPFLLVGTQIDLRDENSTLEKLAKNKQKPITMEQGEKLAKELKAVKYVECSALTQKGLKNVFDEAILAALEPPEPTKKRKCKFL

Binder | binding result (Par complex [1]) | other results
His-Par-3 PDZ2 (domain or fragment, Drosophila melanogaster, UniProt O96782 444-533, looked up, Par-3 (Bazooka), Drosophila melanogaster, PDZ2, residues 444-533, from pET19; source: E. coli BL21-DE3, His-purified) QIMLKKGPNGLGFSVTTRDNPAGAHCPIYIKNILPRGAAIEDGRLKPGDRLLEVDGTPMTGKTQTDVVAILRGMPAGATVRIVVSRQQEL | binds | –
His-Par-3 BR-PDZ2 (domain or fragment, Drosophila melanogaster, UniProt O96782 426-533, looked up, Par-3 (Bazooka), Drosophila melanogaster, basic region and PDZ2, residues 426-533, from pET19; source: E. coli BL21-DE3, His-purified) PVGTSLQVANTRKLGRKIQIMLKKGPNGLGFSVTTRDNPAGAHCPIYIKNILPRGAAIEDGRLKPGDRLLEVDGTPMTGKTQTDVVAILRGMPAGATVRIVVSRQQEL | binds | –
GST-Par-3 PDZ3 (domain or fragment, Drosophila melanogaster, UniProt O96782 616-741, looked up, Par-3 (Bazooka), Drosophila melanogaster, PDZ3, residues 616-741, from pGEX; source: E. coli BL21-DE3, lysate adsorbed to glutathione resin and washed; not shown: GST, N-terminal, kept) HSREELTLHIPVHDTEKAGLGVSVKGKTCSNLNASGSSASSGSNGLMKHDGDLGIFVKNVIHGGAASRDGRLRMNDQLLSVNGVSLRGQNNAEAMETLRRAMVNTPGKHPGTITLLVGRKILRSAS | binds | –
MBP-Par-3 PDZ1-APM (domain or fragment, Drosophila melanogaster, UniProt O96782 309-987, looked up, Par-3 (Bazooka), Drosophila melanogaster, residues 309-987 (PDZ1 to the aPKC phosphorylation motif), from pMAL Par-3 309-987-His; also called MBP-Par-3 PDZ1-APM-His; Bazooka; source: E. coli BL21-DE3; His-purified (soluble phase) or lysate adsorbed to amylose resin and washed (solid phase); not shown: MBP, N-terminal, kept) DGEMLLIINEYGSPLGLTALPDKEHGGGLLVQHVEPGSRAERGQLRRDDRILEINGIKLIGLTESQVQEQLRRALESSELRVRVLRGDRNRRQQRDSKVADMVEVATVSPTRKPHAAPVGTSLQVANTRKLGRKIQIMLKKGPNGLGFSVTTRDNPAGAHCPIYIKNILPRGAAIEDGRLKPGDRLLEVDGTPMTGKTQTDVVAILRGMPAGATVRIVVSRQQELAEQADQPAEKSAGVAVAPSVAPPAVPAAAAPAPPIPVQKSSSARSLFTHQQQSQLNESQHFIDAGSESAASNDSLPPSSNSWHSREELTLHIPVHDTEKAGLGVSVKGKTCSNLNASGSSASSGSNGLMKHDGDLGIFVKNVIHGGAASRDGRLRMNDQLLSVNGVSLRGQNNAEAMETLRRAMVNTPGKHPGTITLLVGRKILRSASSSDILDHSNSHSHSHSNSSGGSNSNGSGNNNNSSSNASDNSGATVIYLSPEKREQRCNGGGGGGSAGNEMNRWSNPVLDRLTGGICSSNSAQPSSQQSHQQQPHPSQQQQQQRRLPAAPVCSSAALRNESYYMATNDNWSPAQMHLMTAHGNTALLIEDDAEPMSPTLPARPHDGQHCNTSSANPSQNLAVGNQGPPINTVPGTPSTSSNFDATYSSQLSLETNSGVEHFSRDALGRRSISEKHHA | – | Kd (Par complex [2]): 600 nM
B1 | – | Kd (Par complex [3]): 5400 nM
His-Par-6 CRIB-PDZ (domain or fragment, Drosophila melanogaster, UniProt O97111 130-255, looked up, Par-6, Drosophila melanogaster, CRIB-PDZ, residues 130-255, from pBH; chosen because the methods name GST-Cdc42^Q61L as the solid phase; source: E. coli BL21-DE3, His-purified) KTKAPSISIPHDFRQVSAIIDVDIVPETHRRVRLLKHGSDKPLGFYIRDGTSVRVTASGLEKQPGIFISRLVPGGLAESTGLLAVNDEVIEVNGIEVAGKTLDQVTDMMVANSSNLIITVKPANQR | – | Kd (GST-Cdc42^Q61L): 2300 nM
MBP-Par-3 PDZ1-APM ΔPDZ1 (domain or fragment, Drosophila melanogaster, UniProt O96782 393-987, looked up, Par-3 (Bazooka), Drosophila melanogaster, residues 393-987, from pMAL Par-3 393-987-His; source: E. coli BL21-DE3, His-purified) LRGDRNRRQQRDSKVADMVEVATVSPTRKPHAAPVGTSLQVANTRKLGRKIQIMLKKGPNGLGFSVTTRDNPAGAHCPIYIKNILPRGAAIEDGRLKPGDRLLEVDGTPMTGKTQTDVVAILRGMPAGATVRIVVSRQQELAEQADQPAEKSAGVAVAPSVAPPAVPAAAAPAPPIPVQKSSSARSLFTHQQQSQLNESQHFIDAGSESAASNDSLPPSSNSWHSREELTLHIPVHDTEKAGLGVSVKGKTCSNLNASGSSASSGSNGLMKHDGDLGIFVKNVIHGGAASRDGRLRMNDQLLSVNGVSLRGQNNAEAMETLRRAMVNTPGKHPGTITLLVGRKILRSASSSDILDHSNSHSHSHSNSSGGSNSNGSGNNNNSSSNASDNSGATVIYLSPEKREQRCNGGGGGGSAGNEMNRWSNPVLDRLTGGICSSNSAQPSSQQSHQQQPHPSQQQQQQRRLPAAPVCSSAALRNESYYMATNDNWSPAQMHLMTAHGNTALLIEDDAEPMSPTLPARPHDGQHCNTSSANPSQNLAVGNQGPPINTVPGTPSTSSNFDATYSSQLSLETNSGVEHFSRDALGRRSISEKHHA | binds | –
MBP-Par-3 PDZ1-APM ΔPDZ3 (domain or fragment, Drosophila melanogaster, UniProt O96782 309-987, looked up, Par-3 (Bazooka), Drosophila melanogaster, residues 309-987 with 616-741 deleted, from pMAL Par-3 309-987 Δ616-741-His; source: E. coli BL21-DE3, His-purified) DGEMLLIINEYGSPLGLTALPDKEHGGGLLVQHVEPGSRAERGQLRRDDRILEINGIKLIGLTESQVQEQLRRALESSELRVRVLRGDRNRRQQRDSKVADMVEVATVSPTRKPHAAPVGTSLQVANTRKLGRKIQIMLKKGPNGLGFSVTTRDNPAGAHCPIYIKNILPRGAAIEDGRLKPGDRLLEVDGTPMTGKTQTDVVAILRGMPAGATVRIVVSRQQELAEQADQPAEKSAGVAVAPSVAPPAVPAAAAPAPPIPVQKSSSARSLFTHQQQSQLNESQHFIDAGSESAASNDSLPPSSNSWSSDILDHSNSHSHSHSNSSGGSNSNGSGNNNNSSSNASDNSGATVIYLSPEKREQRCNGGGGGGSAGNEMNRWSNPVLDRLTGGICSSNSAQPSSQQSHQQQPHPSQQQQQQRRLPAAPVCSSAALRNESYYMATNDNWSPAQMHLMTAHGNTALLIEDDAEPMSPTLPARPHDGQHCNTSSANPSQNLAVGNQGPPINTVPGTPSTSSNFDATYSSQLSLETNSGVEHFSRDALGRRSISEKHHA | binds | –
